Among the data in the supplement of paper PMC10567573 are protein stability index values, retold here.

The labels stand for the following.
B1: ZNF207 (parent)
chain: CHICHKKLYTGPGLAIHCMQVHKE
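Note: lentivirally expressed fusions sorted by FACS into six bins by GFP to DsRed ratio, PSI derived from sequencing read proportions per bin multiplied by bin number.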

The variants in the series derive from B1. As to the kind of experiment: protein stability index of a GFP-peptide fusion (GPS, HEK-293T) (PSI 1-6); higher = more stable. The note with it: c terminus: a fixed tail appended.
For CHICHKKLYTGPGLVIHCMQVHKE [A15V], the protein stability index turned out to be 2.35.
The result for CHICHKKLYTGPGLRIHCMQVHKE [A15R] reads 3.19; that for CHICHKKLYTGPGLSIHCMQVHKE [A15S], 3.42.
Under CHICHKKLYTGPGLMIHCMQVHKE [A15M] stands 3.35.
In the case of CHICHKKLYTGPGLLIHCMQVHKE [A15L], the protein stability index is 2.66.
Take CHICHKKLYTGPGLWIHCMQVHKE [A15W]: the protein stability index is 2.27.
Under CHICHKKLYTGPGLQIHCMQVHKE [A15Q] stands 3.7; under CHICHKKLYTGPGLGIHCMQVHKE [A15G], 4.44; under CHICHKKLYTGPGLFIHCMQVHKE [A15F], 2.91.
Under CHICHKKLYTGPGLEIHCMQVHKE [A15E] stands 3.55.
The result for CHICHKKLYTGPGLPIHCMQVHKE [A15P] reads 3.24; that for CHICHKKLYTGPGLDIHCMQVHKE [A15D], 4.37.
Regarding CHICHKKLYTGPGLNIHCMQVHKE [A15N], the protein stability index turned out to be 3.7.
Under CHICHKKLYTGPGLIIHCMQVHKE [A15I] stands 2.79; under CHICHKKLYTGPGLKIHCMQVHKE [A15K], 3.38.
The result for CHICHKKLYTGPGLTIHCMQVHKE [A15T] reads 3.69; that for CHICHKKLYTGPGLHIHCMQVHKE [A15H], 2.99; that for CHICHKKLYTGPGLYIHCMQVHKE [A15Y], 3.21.
Under CHICHKKLYTGPGLCIHCMQVHKE [A15C] stands 4.64.
CHICHKKLYTGPGLAIHCMLVHKE [Q20L]: the protein stability index was found to be 4.
Under CHICHKKLYTGPGLAIHCMVVHKE [Q20V] stands 3.88.
Under CHICHKKLYTGPGLAIHCMKVHKE [Q20K] stands 2.75; under CHICHKKLYTGPGLAIHCMIVHKE [Q20I], 3.61.
Under CHICHKKLYTGPGLAIHCMFVHKE [Q20F] stands 3.4; under CHICHKKLYTGPGLAIHCMWVHKE [Q20W], 2.92.
Take CHICHKKLYTGPGLAIHCMHVHKE [Q20H]: the protein stability index came out at 4.04.
Under CHICHKKLYTGPGLAIHCMTVHKE [Q20T] stands 3.56.
With CHICHKKLYTGPGLAIHCMMVHKE [Q20M], the protein stability index is 3.65.
CHICHKKLYTGPGLAIHCMGVHKE [Q20G]: the protein stability index stood at 3.13.
For CHICHKKLYTGPGLAIHCMAVHKE [Q20A], the protein stability index amounted to 3.4.
The result for CHICHKKLYTGPGLAIHCMEVHKE [Q20E] reads 3.95.
In the case of CHICHKKLYTGPGLAIHCMSVHKE [Q20S], the protein stability index came out at 1.93.
The result for CHICHKKLYTGPGLAIHCMRVHKE [Q20R] reads 2.62; that for CHICHKKLYTGPGLAIHCMPVHKE [Q20P], 2.86; that for CHICHKKLYTGPGLAIHCMCVHKE [Q20C], 4.79.
The result for CHICHKKLYTGPGLAIHCMNVHKE [Q20N] reads 3.85.
The result for CHICHKKLYTGPGLAIHCMDVHKE [Q20D] reads 3.28; that for CHICHKKLYTGPGLAIHCMYVHKE [Q20Y], 3.36; that for CHICHKKLYTGPALAIHCMQVHKE [G13A], 4.96.
Turning to CHICHKKLYTGPLLAIHCMQVHKE [G13L], the protein stability index is 2.9.
Under CHICHKKLYTGPELAIHCMQVHKE [G13E] stands 4.3.
Turning to CHICHKKLYTGPRLAIHCMQVHKE [G13R], the protein stability index turned out to be 2.41.
Under CHICHKKLYTGPQLAIHCMQVHKE [G13Q] stands 4.07.
Under CHICHKKLYTGPMLAIHCMQVHKE [G13M] stands 3.64; under CHICHKKLYTGPSLAIHCMQVHKE [G13S], 3.83; under CHICHKKLYTGPPLAIHCMQVHKE [G13P], 2.43.
On to CHICHKKLYTGPKLAIHCMQVHKE [G13K], for which the protein stability index amounted to 3.15.
The result for CHICHKKLYTGPCLAIHCMQVHKE [G13C] reads 3.65; that for CHICHKKLYTGPYLAIHCMQVHKE [G13Y], 2.12.
For CHICHKKLYTGPILAIHCMQVHKE [G13I], the protein stability index stood at 2.3.
With CHICHKKLYTGPFLAIHCMQVHKE [G13F], the protein stability index was 2.11.
The result for CHICHKKLYTGPNLAIHCMQVHKE [G13N] reads 3.77; that for CHICHKKLYTGPHLAIHCMQVHKE [G13H], 4.02; that for CHICHKKLYTGPVLAIHCMQVHKE [G13V], 2.54.
In the case of CHICHKKLYTGPDLAIHCMQVHKE [G13D], the protein stability index is 4.82.
The result for CHICHKKLYTGPWLAIHCMQVHKE [G13W] reads 2.07; that for CHICHKKLYTGPTLAIHCMQVHKE [G13T], 3.37.
Under CHICHKKLYTGPGLAIHCMQMHKE [V21M] stands 3.72; under CHICHKKLYTGPGLAIHCMQDHKE [V21D], 3.5; under CHICHKKLYTGPGLAIHCMQEHKE [V21E], 3.6.
Under CHICHKKLYTGPGLAIHCMQTHKE [V21T] stands 3.7; under CHICHKKLYTGPGLAIHCMQPHKE [V21P], 3.21; under CHICHKKLYTGPGLAIHCMQNHKE [V21N], 3.48.
On to CHICHKKLYTGPGLAIHCMQHHKE [V21H], for which the protein stability index stood at 3.44.
Under CHICHKKLYTGPGLAIHCMQYHKE [V21Y] stands 3.93.
CHICHKKLYTGPGLAIHCMQCHKE [V21C]: the protein stability index was found to be 4.09.
Under CHICHKKLYTGPGLAIHCMQFHKE [V21F] stands 3.35.
For CHICHKKLYTGPGLAIHCMQAHKE [V21A], the protein stability index worked out at 3.84.
Under CHICHKKLYTGPGLAIHCMQSHKE [V21S] stands 3.71; under CHICHKKLYTGPGLAIHCMQQHKE [V21Q], 2.89.
Take CHICHKKLYTGPGLAIHCMQWHKE [V21W]: the protein stability index is 2.89.
Turning to CHICHKKLYTGPGLAIHCMQIHKE [V21I], the protein stability index worked out at 2.49.
Under CHICHKKLYTGPGLAIHCMQKHKE [V21K] stands 3.27; under CHICHKKLYTGPGLAIHCMQRHKE [V21R], 2.84.
Under CHICHKKLYTGPGLAIHCMQGHKE [V21G] stands 3.96; under CHICHKKLYTGPGLAIHCMQLHKE [V21L], 3; under CHICHKKLYTGPGLAWHCMQVHKE [I16W], 3.16.
The result for CHICHKKLYTGPGLAVHCMQVHKE [I16V] reads 3.81; that for CHICHKKLYTGPGLAHHCMQVHKE [I16H], 4.39; that for CHICHKKLYTGPGLAEHCMQVHKE [I16E], 4.77.
Consider CHICHKKLYTGPGLAGHCMQVHKE [I16G], for which the protein stability index came out at 4.1.
Under CHICHKKLYTGPGLAPHCMQVHKE [I16P] stands 3.97.
Under CHICHKKLYTGPGLADHCMQVHKE [I16D] stands 4.71; under CHICHKKLYTGPGLASHCMQVHKE [I16S], 3.72.
Turning to CHICHKKLYTGPGLAMHCMQVHKE [I16M], the protein stability index was found to be 3.45.
As to CHICHKKLYTGPGLAYHCMQVHKE [I16Y], the protein stability index is 3.02.
Take CHICHKKLYTGPGLANHCMQVHKE [I16N]: the protein stability index stood at 3.71.
On to CHICHKKLYTGPGLAAHCMQVHKE [I16A], for which the protein stability index was 3.54.
Under CHICHKKLYTGPGLAQHCMQVHKE [I16Q] stands 3.9; under CHICHKKLYTGPGLAKHCMQVHKE [I16K], 3.23; under CHICHKKLYTGPGLACHCMQVHKE [I16C], 4.33.
Under CHICHKKLYTGPGLARHCMQVHKE [I16R] stands 2.71; under CHICHKKLYTGPGLALHCMQVHKE [I16L], 3.01; under CHICHKKLYTGPGLAFHCMQVHKE [I16F], 3.83.
